Reference: the Immune Epitope Database (IEDB)

Assays:
Assay in all cases: IEDB peptide-MHC binding, purified MHC/competitive/radioactivity; ≥ and ≤ were set here for values at or beyond the usual limits of such assays
Details in all cases: source organism: Bordetella pertussis
HLA-B*53:01 = molecular target: HLA-B*53:01
HLA-B*35:01 = molecular target: HLA-B*35:01
HLA-A*02:01 = molecular target: HLA-A*02:01
HLA-B*07:02 = molecular target: HLA-B*07:02
HLA-B*44:03 = molecular target: HLA-B*44:03
HLA-B*57:01 = molecular target: HLA-B*57:01

Q: Which IC50 (HLA-B*53:01) does the source give for HADDGTIVI here?
A: 69.9 µM

Q: How did the IC50 (HLA-B*35:01) turn out when HAQGKALLY was run?
A: 0.385 µM

Q: Which IC50 (HLA-B*35:01) does the source give for VAMKPYEVT here?
A: 69.9 µM

Q: MIYMSGLAV was tested. Which IC50 (HLA-A*02:01) did it give?
A: 2.86 µM

Q: Which IC50 (HLA-B*35:01) does the source give for LVFSHVRGM here?
A: 19.8 µM

Q: Which IC50 (HLA-B*35:01) does the source give for QITQHGGPY here?
A: 44 µM

Q: Which results are given for AALGRGHSL?
A: IC50 (HLA-B*07:02): 19.6 µM; IC50 (HLA-A*02:01): 32.1 µM

Q: With PGPTTDYST as the sequence, how does the IC50 (HLA-B*44:03) read?
A: ≥ 78.2 µM

Q: How did the IC50 (HLA-B*53:01) turn out when LASDGSVDF was run?
A: 23.1 µM

Q: TVQELALKL was tested. Which IC50 (HLA-B*44:03) did it give?
A: 12.5 µM

Q: Which IC50 (HLA-B*53:01) does the source give for GYEAGFSLG here?
A: 26 µM

Q: TSRTVTMRY was tested. Which IC50 (HLA-B*57:01) did it give?
A: 0.182 µM

Q: How did the IC50 (HLA-B*44:03) turn out when VAVAGGRWH was run?
A: ≥ 78.2 µM

Q: EATQQAAGF was tested. Which IC50 (HLA-B*35:01) did it give?
A: 41.1 µM

Q: With ITNETGKTY as the sequence, how does the IC50 (HLA-B*57:01) read?
A: ≥ 70.4 µM

Q: QITQHGSPY was tested. Which IC50 (HLA-B*35:01) did it give?
A: 34.5 µM
